# Measurements taken from US20110064733A1 (published 2011).
# Where a chain is given by its changes, count along the chain named.
# B1: murine anti-CA6 monoclonal antibody DS6 (antibody, mouse IgG1, V domains shown)
# VH: QAYLQQSGAELVRSGASVKMSCKASGYTFTSYNMHWVKQTPGQGLEWIGYIYPGNGATNYNQKFKGKATLTADPSSSTAYMQISSLTSEDSAVYFCARGDSVPFAYWGQGTLVTVSA
# VL: QIVLTQSPAIMSASPGEKVTITCSAHSSVSFMHWFQQKPGTSPKLWIYSTSSLASGVPARFGGSGSGTSYSLTISRMEAEDAATYYCQQRSSFPLTFGAGTKLELKR
# notes: Whole murine monoclonal antibody from the hybridoma (ATCC PTA-4449); They were cloned with murine IgG1 and kappa primers; also called muDS6; the DS6 antibody
# B2: humanized DS6 antibody version 1.01 (antibody, V domains shown)
# VH: B1 VH with Y3Q, Q5V, L11V, R13K, S14P, K65Q, P74T
# VL: B1 VL with Q1E, I10T, K18R, R76S
# notes: also called huDS6v1.01; huDS6 v1.01
# B3: humanized DS6 antibody version 1.21 (antibody, V domains shown)
# VH: B1 VH with Y3Q, Q5V, L11V, R13K, S14P, K65Q
# VL: B1 VL with Q1E, I10T, K18R, R76S
# notes: also called huDS6v1.21; huDS6 v1.21
# B4: chimeric DS6 antibody (antibody, V domains shown)
# VH: B1 VH
# VL: B1 VL
# notes: Expressed in CHO cells; also called chDS6
# Experiments:
# [1] = target: T1, Muc1 mucin bearing the CA6 sialoglycotope (DS6 antigen), as expressed by CA6-positive human tumour cell lines (human, UniProt P15941 24-1255, sialylated O-linked carbohydrate carrying the CA6 glycotope; sites not stated); experiment: cell-based or functional assay
# [2] = target: T1, Muc1 mucin bearing the CA6 …; experiment: flow cytometry on HeLa cells (FIG. 28), apparent Kd, probably pM
# [3] = target: T1, Muc1 mucin bearing the CA6 …; experiment: flow cytometry competition; competitor 2 nM biotin-muDS6, streptavidin-DTAF; called IC50 in the legend of FIG. 19
# Protocol: In the first set of experiments direct binding to a CA6-expressing cell line, KB, was measured.
Binder,"indirect cell viability assay on Caov-3 cells with anti-mouse IgG (H+L) DM1 conjugate, IC50 [1] [nM]",Kd [2] [nM],EC50 [3] [nM]
B1,425000,620000,1.9
B2,–,–,3
B3,–,–,1.9
B4,–,–,1.7
